Experimental data reported in patent US20150299296A1 (Chugai, published 2015).
Substitutions are numbered along the chain they refer to. Names and notes keep the numbering of the source.

B1: IL6R-BP199/IL6R-L (antibody, human IgG1, kappa, name in EU numbering)
heavy: QVQLQESGPGLVKPSETLSLTCAVSGHSISHDHAWSWVRQPPGEGLEWIGFISYSGITNYNPSLQGRVTISRDNSKNTLYLQMNSLRAEDTAVYYCARSLARTTAMDYWGEGTLVTVSSASTKGPSVFPLAPSSKSTSGGTAALGCLVKDYFPEPVTVSWNSGALTSGVHTFPAVLQSSGLYSLSSVVTVPSSSLGTQTYICNVNHKPSNTKVDKKVEPKSCDKTHTCPPCPAPDLLGGDSVFLFPPKPKDTLMISRTPEVTCVVVDVSHEDPEVKFNWYVDGVEVHNAKTKPREEQYNSTYRVVSVLTVLHQDWLNGKEYKCKVSNAALPRPIEKTISKAKGQPREPQVYTLPPSRDELTKNQVSLTCLVKGFYPSDIAVEWESNGQPENNYKTTPPVLDSDGSFFLYSKLTVDKSRWQQGNVFSCSVMHEALHNHYTQESLSLSP
light: not shown
B2: IL6R-BP184/IL6R-L (antibody, human IgG1, kappa, name in EU numbering)
heavy: B1 heavy with P273G, A328K, R332K
light: not shown
B3: IL6R-BP186/IL6R-L (antibody, human IgG1, kappa, name in EU numbering)
heavy: B1 heavy with L236Y, G239D, P273G, Y298D, R332K
light: not shown
B4: IL6R-BP206/IL6R-L (antibody, human IgG1, kappa, name in EU numbering)
heavy: B1 heavy with P273G, A328K
light: not shown
B5: IL6R-BP180/IL6R-L (antibody, human IgG1, kappa, name in EU numbering)
heavy: B1 heavy with D235E, G239D, P273G, A328K, R332K
light: not shown
B6: IL6R-BP207/IL6R-L (antibody, human IgG1, kappa, name in EU numbering)
heavy: B1 heavy with A328K
light: not shown
B7: IL6R-BP179/IL6R-L (antibody, human IgG1, kappa, name in EU numbering)
heavy: B1 heavy with D235E, G239D, P273G, R332K
light: not shown
B8: IL6R-BP213/IL6R-L (antibody, human IgG1, kappa, name in EU numbering)
heavy: B1 heavy with H270D, P273G, A328K
light: not shown
B9: IL6R-BP177/IL6R-L (antibody, human IgG1, kappa, name in EU numbering)
heavy: B1 heavy with L236Y, G239D, P273G, A328D, R332K
light: not shown
B10: IL6R-BP150/IL6R-L (antibody, human IgG1, kappa, name in EU numbering)
heavy: B1 heavy with D235E, L236Y, G239D
light: not shown
B11: IL6R-BP203/IL6R-L (antibody, human IgG1, kappa, name in EU numbering)
heavy: B1 heavy with D235E, G239D, P273G, A328K
light: not shown
B12: IL6R-BP198/IL6R-L (antibody, human IgG1, kappa, name in EU numbering)
heavy: B1 heavy with L236Y, H270D, P273G, R332K
light: not shown
B13: IL6R-BP196/IL6R-L (antibody, human IgG1, kappa, name in EU numbering)
heavy: B1 heavy with D235E, L236Y, H270D, P273G, R332K
light: not shown
B14: IL6R-BP192/IL6R-L (antibody, human IgG1, kappa, name in EU numbering)
heavy: B1 heavy with H270D, P273G, Y298D, A328K, R332K
light: not shown
B15: IL6R-BP209/IL6R-L (antibody, human IgG1, kappa, name in EU numbering)
heavy: B1 heavy with D235E, G239D, H270D, P273G
light: not shown
B16: IL6R-BP185/IL6R-L (antibody, human IgG1, kappa, name in EU numbering)
heavy: B1 heavy with L236Y, G239D, P273G, R332K
light: not shown
B17: IL6R-BP189/IL6R-L (antibody, human IgG1, kappa, name in EU numbering)
heavy: B1 heavy with D235E, G239D, H270D, P273G, R332K
light: not shown
B18: IL6R-BP183/IL6R-L (antibody, human IgG1, kappa, name in EU numbering)
heavy: B1 heavy with L236Y, P273G, R332K
light: not shown
B19: IL6R-BP187/IL6R-L (antibody, human IgG1, kappa, name in EU numbering)
heavy: B1 heavy with D235E, L236Y, P273G, R332K
light: not shown
B20: IL6R-BP194/IL6R-L (antibody, human IgG1, kappa, name in EU numbering)
heavy: B1 heavy with L236Y, G239D, H270D, P273G, R332K
light: not shown
B21: IL6R-BP423/IL6R-L (antibody, human IgG1, kappa)
heavy: B1 heavy with G239D, S269A, H270E, P273G, A328K
light: not shown
B22: IL6R-BP429/IL6R-L (antibody, human IgG1, kappa)
heavy: B1 heavy with G239D, V266I, S269G, H270E, P273G, A328K
light: not shown
B23: IL6R-BP445/IL6R-L (antibody, human IgG1, kappa)
heavy: B1 heavy with G239D, V266I, S269A, H270E, P273G, A328K
light: not shown
B24: IL6R-BP499/IL6R-L (antibody, human IgG1, kappa)
heavy: B1 heavy with G239D, V266I, S269A, H270E, P273G, Y298D, A328K, P398L
light: not shown
B25: IL6R-BP490/IL6R-L (antibody, human IgG1, kappa)
heavy: B1 heavy with D235E, G239D, V266I, S269A, H270E, P273G, A328K
light: not shown
B26: IL6R-BP511/IL6R-L (antibody, human IgG1, kappa)
heavy: B1 heavy with D235E, G239D, V266I, S269A, H270E, P273G, E274P, Y298D, A328K
light: not shown
B27: IL6R-BP494/IL6R-L (antibody, human IgG1, kappa)
heavy: B1 heavy with D235E, G239D, S269A, H270E, P273G, Y298D, A328K
light: not shown
B28: IL6R-BP503/IL6R-L (antibody, human IgG1, kappa)
heavy: B1 heavy with G239D, V266I, S269A, H270E, P273G, Y298D, A328K, A329G, P398M
light: not shown
B29: IL6R-BP488/IL6R-L (antibody, human IgG1, kappa)
heavy: B1 heavy with G239D, V266I, S269A, H270E, P273G, Y298D, A328K
light: not shown
B30: IL6R-BP487/IL6R-L (antibody, human IgG1, kappa)
heavy: B1 heavy with G239D, V266I, S269A, H270E, P273G, A328K, P398M
light: not shown
B31: IL6R-BP510/IL6R-L (antibody, human IgG1, kappa)
heavy: B1 heavy with D235E, G239D, V266I, S269A, H270E, P273G, E274P, A328K
light: not shown
notes: also called IL6R-BP510/L6R-L
B32: IL6R-BP491/IL6R-L (antibody, human IgG1, kappa)
heavy: B1 heavy with D235E, G239D, V266I, S269A, H270E, P273G, Y298D, A328K
light: not shown
B33: IL6R-BP498/IL6R-L (antibody, human IgG1, kappa)
heavy: B1 heavy with G239D, V266I, S269A, H270E, P273G, A328K, P398L
light: not shown
B34: IL6R-BP437/IL6R-L (antibody, human IgG1, kappa)
heavy: B1 heavy with D235E, G239D, S269A, H270E, P273G, Y298D, A328K, I334T
light: not shown

What follows are binders tested against T1, human FcγRIIIa type V extracellular domain with C-terminal His tag (human, UniProt P08637 17-208) (assay: SPR; IL6R-BF648/IL6R-L=100).
T1 construct: extracellular domain; also called FcgRIIIaV; FcγRIIIaV
T1 sequence (P08637 17-208 F176V): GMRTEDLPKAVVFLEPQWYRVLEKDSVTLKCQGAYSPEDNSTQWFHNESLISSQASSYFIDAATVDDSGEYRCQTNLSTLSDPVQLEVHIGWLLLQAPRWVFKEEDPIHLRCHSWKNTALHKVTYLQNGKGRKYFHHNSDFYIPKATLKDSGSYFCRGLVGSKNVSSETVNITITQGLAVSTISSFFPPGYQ

| Binder | relative binding activity |
| --- | --- |
| B1 | 103 |
| B2 | 106 |
| B3 | 143 |
| B4 | 92 |
| B5 | 100 |
| B6 | 97 |
| B7 | 125 |
| B8 | 100 |
| B9 | 186 |
| B10 | 204 |
| B11 | 88 |
| B12 | 157 |
| B13 | 137 |
| B14 | 118 |
| B15 | 153 |
| B16 | 191 |
| B17 | 141 |
| B18 | 113 |
| B19 | 124 |
| B20 | 249 |

Each binder was assayed against T2, human FcγRIIb extracellular domain with C-terminal His tag (human, UniProt P31994 43-217) (assay: SPR; IL6R-BF648/IL6R-L=100).
T2 construct: extracellular domain; For crystals it was expressed with kifunensine and trimmed with Endo F1; also called FcgRIIb; FcγRIIb extracellular region
T2 sequence (looked up): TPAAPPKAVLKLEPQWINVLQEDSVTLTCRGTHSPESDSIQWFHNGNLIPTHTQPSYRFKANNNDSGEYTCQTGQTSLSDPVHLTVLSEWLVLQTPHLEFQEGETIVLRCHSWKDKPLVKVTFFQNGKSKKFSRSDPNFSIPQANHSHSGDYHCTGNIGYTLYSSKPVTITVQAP

| Binder | relative binding activity |
| --- | --- |
| B1 | 144 |
| B2 | 171 |
| B3 | 175 |
| B4 | 168 |
| B5 | 179 |
| B6 | 124 |
| B7 | 177 |
| B8 | 169 |
| B9 | 177 |
| B10 | 183 |
| B11 | 185 |
| B12 | 164 |
| B13 | 157 |
| B14 | 172 |
| B15 | 186 |
| B16 | 179 |
| B17 | 177 |
| B18 | 164 |
| B19 | 157 |
| B20 | 178 |

What follows are binders tested against T3, human FcγRIa extracellular domain with C-terminal His tag (human, UniProt P12314 16-292) (assay: SPR; IL6R-BF648/IL6R-L=100).
T3 construct: Whole entry named; also called FcgRIa; FcgIa
T3 sequence (P12314 16-292): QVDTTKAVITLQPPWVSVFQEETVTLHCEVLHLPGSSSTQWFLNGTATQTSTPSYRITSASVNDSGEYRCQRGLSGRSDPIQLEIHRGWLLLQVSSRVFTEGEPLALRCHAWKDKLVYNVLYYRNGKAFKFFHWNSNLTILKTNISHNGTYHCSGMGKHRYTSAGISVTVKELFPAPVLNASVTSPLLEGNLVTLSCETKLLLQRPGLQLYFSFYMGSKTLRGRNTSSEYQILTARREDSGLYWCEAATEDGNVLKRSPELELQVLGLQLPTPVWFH

| Binder | relative binding activity |
| --- | --- |
| B1 | 112 |
| B2 | 96 |
| B3 | 43 |
| B4 | 101 |
| B5 | 29 |
| B6 | 74 |
| B7 | 39 |
| B8 | 118 |
| B9 | 57 |
| B10 | 30 |
| B11 | 35 |
| B12 | 104 |
| B13 | 89 |
| B14 | 109 |
| B15 | 68 |
| B16 | 47 |
| B17 | 56 |
| B18 | 83 |
| B19 | 68 |
| B20 | 69 |

What follows are binders tested against T4, human FcγRIIa type H extracellular domain with C-terminal His tag (human, UniProt P12318 34-217) (assay: SPR; IL6R-BF648/IL6R-L=100).
T4 construct: extracellular domain; also called FcgRIIaH; FcγRIIa H
T4 sequence (looked up): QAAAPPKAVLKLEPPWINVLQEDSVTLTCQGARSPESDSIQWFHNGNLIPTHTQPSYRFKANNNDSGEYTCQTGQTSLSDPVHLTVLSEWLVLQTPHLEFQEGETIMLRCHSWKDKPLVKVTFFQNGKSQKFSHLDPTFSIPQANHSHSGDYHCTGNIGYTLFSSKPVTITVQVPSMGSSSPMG

| Binder | relative binding activity |
| --- | --- |
| B1 | 116 |
| B2 | 131 |
| B3 | 368 |
| B4 | 123 |
| B5 | 203 |
| B6 | 103 |
| B7 | 226 |
| B8 | 123 |
| B9 | 409 |
| B10 | 770 |
| B11 | 255 |
| B12 | 188 |
| B13 | 195 |
| B14 | 122 |
| B15 | 267 |
| B16 | 446 |
| B17 | 183 |
| B18 | 191 |
| B19 | 205 |
| B20 | 395 |

The binders below were run against T2, human FcγRIIb extracellular domain with … (assay: SPR).

| Binder | binding result |
| --- | --- |
| B21 | binds |
| B22 | binds |
| B23 | binds |
| B24 | binds |
| B25 | binds |
| B26 | binds |
| B27 | binds |
| B28 | binds |
| B29 | binds |
| B30 | binds |
| B31 | binds |
| B32 | binds |
| B33 | binds |
| B34 | binds |
